# Molecular target: Spt6 (UniProt Q9W420)
# Test: anti-Spt6 co-IP, FLAG blot, 150 mM wash
# Conditions: reference: wild type dCENP-A-FLAG; sites S20,S75,S77
substance,measurement,value
dCENP-A (CID) (from UniProt Q9V6Q2) S20/S75/S77A,binding against the reference,stronger
